Experimental data: PMC5828360 (PLoS ONE, 2018)
Bridges are numbered along the chain shown (N, C = ends). [ ]: non-standard residue; d: D form. The star is where a group is joined. Pen = CC(C)(S)[C@H](N)C(=O)O; Thz = O=C(O)[C@@H]1CSCN1; Propionyl = CCC(=O)*

Biological target: T1, recombinant mouse LDLR (His-tagged), extracellular domain (mouse, UniProt P35951 22-790)
T1 construct: mouse low-density lipoprotein receptor, extracellular domain; immobilised on a NiHC sensor chip; in the functional rows it stands for the endogenous LDLR of the mouse; also called mLDLR; murine LDLR; source: bought: Sino Biological
Experiment: SPR; hLDLR or mLDLR (His-tagged) immobilised on a NiHC sensor chip at 35-60 fmol/mm^2; Biacore T200, 25°C; 50 mM HEPES-NaOH pH7.4, 150 mM NaCl, 0.005% Tween-20, 50μM EDTA; single-cycle kinetics; 1:1 Langmuir model
Settings: both partners purified

T1 sequence (P35951 22-790): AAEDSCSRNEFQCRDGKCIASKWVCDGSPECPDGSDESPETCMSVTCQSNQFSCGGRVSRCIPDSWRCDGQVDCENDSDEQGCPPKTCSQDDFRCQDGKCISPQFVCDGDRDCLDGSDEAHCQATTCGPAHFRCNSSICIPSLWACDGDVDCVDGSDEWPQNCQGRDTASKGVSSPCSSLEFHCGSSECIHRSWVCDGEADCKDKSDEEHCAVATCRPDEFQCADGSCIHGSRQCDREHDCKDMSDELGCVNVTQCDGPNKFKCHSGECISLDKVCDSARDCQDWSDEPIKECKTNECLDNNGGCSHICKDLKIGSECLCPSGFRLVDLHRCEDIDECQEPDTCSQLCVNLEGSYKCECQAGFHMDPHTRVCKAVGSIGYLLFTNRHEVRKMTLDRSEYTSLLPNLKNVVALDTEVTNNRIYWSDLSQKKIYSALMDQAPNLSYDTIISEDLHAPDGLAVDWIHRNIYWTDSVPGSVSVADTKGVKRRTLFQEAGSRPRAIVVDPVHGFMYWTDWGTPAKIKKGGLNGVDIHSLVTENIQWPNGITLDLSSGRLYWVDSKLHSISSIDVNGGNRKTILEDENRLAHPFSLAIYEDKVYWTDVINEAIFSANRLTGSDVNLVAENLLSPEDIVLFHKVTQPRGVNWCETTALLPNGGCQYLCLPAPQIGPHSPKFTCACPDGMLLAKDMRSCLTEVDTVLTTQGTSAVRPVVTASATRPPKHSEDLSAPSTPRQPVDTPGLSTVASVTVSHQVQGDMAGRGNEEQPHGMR

Kd [nM] | Binder
280 ± 33 | Propionyl-CMPRLRGC-NH2 (disulfide 1-8 (inferred), 8-residue truncation of VH411; source: synthetic peptide) [VH434 synthetic cyclic peptide]
36 ± 1 | Propionyl-[dC]M[Thz]RLRG[Pen]-NH2 (disulfide 1-8) [VH4127 synthetic cyclic peptide]
233 ± 24 | Propionyl-[dC]MPRLRGC-NH2 (disulfide 1-8, printed cMPRLRGC, lower case c = (D)-Cys; also called VH0445; source: synthetic peptide) [VH445 synthetic cyclic peptide]
